Values joined by “and” are separate entries in the source; they are usually repeats but may differ in a detail not shown here. Equal values may be shown once.
Molecular target: CD20 on autologous CD19+CD20+ B cells (human) (UniProt P11836)
Assay: cell-based or functional assay

CD20 on autologous CD19+CD20+ B cells (human), sequence (P11836 whole entry): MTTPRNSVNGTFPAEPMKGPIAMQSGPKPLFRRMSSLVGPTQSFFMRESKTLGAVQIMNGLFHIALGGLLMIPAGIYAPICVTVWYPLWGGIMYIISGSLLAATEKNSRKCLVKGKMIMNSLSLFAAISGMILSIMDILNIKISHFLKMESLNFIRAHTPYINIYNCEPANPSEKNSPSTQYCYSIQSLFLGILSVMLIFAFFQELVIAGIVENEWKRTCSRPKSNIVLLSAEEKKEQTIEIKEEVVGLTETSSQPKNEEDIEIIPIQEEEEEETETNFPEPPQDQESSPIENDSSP

## CD20 CAR (CD8 leader, scFv directed against CD20 (B9E9), streptavidin tag, CD8 alpha linker and transmembrane domain, 4-1BB activation domain, CD3 zeta activation domain) (receptor)
  fold of CD69 activation of Tregs, hFXP3-driven CAR, 24 h with autologous B cells: 1.9 fold and 1.8 fold
  fold of CD69 activation of Tregs, hPGK-driven CAR (TX028), 24 h with autologous B cells: 1.5 fold

Reference: patent publication WO2021028359A1
